Assay [1] deals with commercially available anti-prostasin mouse monoclonal antibody (BD Biosciences, catalog No. 612173). Kind of assay: competitive immunoassay, commercial monoclonal antibody-immobilized plate; competitor POD-labeled recombinant full-length prostasin 6.4 µg/mL; unlabeled recombinant full-length prostasin 0 ng/mL.
Assay [2] has the same target. Nature of the assay: competitive immunoassay, commercial monoclonal antibody-immobilized plate; competitor POD-labeled recombinant full-length prostasin 6.4 µg/mL; unlabeled recombinant full-length prostasin 5 ng/mL.
The target is the same in assay [3]. Kind of assay: competitive immunoassay, commercial monoclonal antibody-immobilized plate; competitor POD-labeled recombinant full-length prostasin 6.4 µg/mL; unlabeled recombinant full-length prostasin 10 ng/mL.
The target is the same in assay [4]. Kind of assay: competitive immunoassay, commercial monoclonal antibody-immobilized plate; competitor POD-labeled recombinant full-length prostasin 6.4 µg/mL; unlabeled recombinant full-length prostasin 25 ng/mL.
Assay [5] has the same target. Nature of the assay: competitive immunoassay, commercial monoclonal antibody-immobilized plate; competitor POD-labeled recombinant full-length prostasin 6.4 µg/mL; unlabeled recombinant full-length prostasin 50 ng/mL.
The target is the same in assay [6]. Kind of assay: competitive immunoassay, commercial monoclonal antibody-immobilized plate; competitor POD-labeled recombinant full-length prostasin 6.4 µg/mL; unlabeled recombinant full-length prostasin 100 ng/mL.
Assay [7] concerns the target affinity-purified antibody (a). Kind of assay: antibody (a)-immobilized plate; POD-labeled peptide (a) 0.05 µg/mL; unlabeled partial peptide (a) 0 ng/mL.
In assay [8] the target is affinity-purified antibody (a). Kind of assay: antibody (a)-immobilized plate; POD-labeled peptide (a) 0.10 µg/mL; unlabeled partial peptide (a) 0 ng/mL.
Assay [9] has as its target affinity-purified antibody (a). Nature of the assay: antibody (a)-immobilized plate; POD-labeled peptide (a) 0.15 µg/mL; unlabeled partial peptide (a) 0 ng/mL.
In assay [10] the target is affinity-purified antibody (a). Kind of assay: antibody (a)-immobilized plate; POD-labeled peptide (a) 0.20 µg/mL; unlabeled partial peptide (a) 0 ng/mL.
Assay [11] deals with affinity-purified antibody (a). Kind of assay: antibody (a)-immobilized plate; POD-labeled peptide (a) 0.25 µg/mL; unlabeled partial peptide (a) 0 ng/mL.
Assay [12] concerns the target affinity-purified antibody (a). Nature of the assay: antibody (a)-immobilized plate; POD-labeled peptide (a) 0.025 µg/mL; unlabeled partial peptide (a) 0 ng/mL.
Assay [13] concerns the target affinity-purified antibody (a). Nature of the assay: antibody (a)-immobilized plate; POD-labeled peptide (a) 0.05 µg/mL; competitor unlabeled partial peptide (a) 50 ng/mL.
For assay [14], the target named is affinity-purified antibody (a). Nature of the assay: antibody (a)-immobilized plate; POD-labeled peptide (a) 0.10 µg/mL; competitor unlabeled partial peptide (a) 50 ng/mL.
Assay [15] deals with affinity-purified antibody (a). Nature of the assay: antibody (a)-immobilized plate; POD-labeled peptide (a) 0.15 µg/mL; competitor unlabeled partial peptide (a) 50 ng/mL.
Assay [16] concerns the target affinity-purified antibody (a). Nature of the assay: antibody (a)-immobilized plate; POD-labeled peptide (a) 0.20 µg/mL; competitor unlabeled partial peptide (a) 50 ng/mL.
For assay [17], the target named is affinity-purified antibody (a). Nature of the assay: antibody (a)-immobilized plate; POD-labeled peptide (a) 0.25 µg/mL; competitor unlabeled partial peptide (a) 50 ng/mL.
Assay [18] deals with affinity-purified antibody (a). Nature of the assay: antibody (a)-immobilized plate; POD-labeled peptide (a) 0.025 µg/mL; competitor unlabeled partial peptide (a) 50 ng/mL.
Assay [19] deals with affinity-purified antibody (a). Nature of the assay: difference of absorbance between 0 and 50 ng/mL unlabeled partial peptide (a); antibody (a)-immobilized plate; POD-labeled peptide (a) 0.05 µg/mL.
The target of assay [20] is affinity-purified antibody (a). Nature of the assay: difference of absorbance between 0 and 50 ng/mL unlabeled partial peptide (a); antibody (a)-immobilized plate; POD-labeled peptide (a) 0.10 µg/mL.
Assay [21] deals with affinity-purified antibody (a). Nature of the assay: difference of absorbance between 0 and 50 ng/mL unlabeled partial peptide (a); antibody (a)-immobilized plate; POD-labeled peptide (a) 0.15 µg/mL.
The target of assay [22] is affinity-purified antibody (a). Nature of the assay: difference of absorbance between 0 and 50 ng/mL unlabeled partial peptide (a); antibody (a)-immobilized plate; POD-labeled peptide (a) 0.20 µg/mL.
In assay [23] the target is affinity-purified antibody (a). Nature of the assay: difference of absorbance between 0 and 50 ng/mL unlabeled partial peptide (a); antibody (a)-immobilized plate; POD-labeled peptide (a) 0.25 µg/mL.
Assay [24] concerns the target affinity-purified antibody (a). Kind of assay: difference of absorbance between 0 and 50 ng/mL unlabeled partial peptide (a); antibody (a)-immobilized plate; POD-labeled peptide (a) 0.025 µg/mL.
Assay [25] has as its target affinity-purified antibody (e). Nature of the assay: competitive immunoassay, antibody (e)-immobilized plate; competitor POD-labeled partial peptide (e) 0.30 µg/mL; unlabeled peptide (e) 0 ng/mL.
Assay [26] concerns the target affinity-purified antibody (e). Kind of assay: competitive immunoassay, antibody (e)-immobilized plate; competitor POD-labeled partial peptide (e) 0.30 µg/mL; unlabeled peptide (e) 5 ng/mL.
Assay [27] addresses affinity-purified antibody (e). Kind of assay: competitive immunoassay, antibody (e)-immobilized plate; competitor POD-labeled partial peptide (e) 0.30 µg/mL; unlabeled peptide (e) 10 ng/mL.
In assay [28] the target is affinity-purified antibody (e). Kind of assay: competitive immunoassay, antibody (e)-immobilized plate; competitor POD-labeled partial peptide (e) 0.30 µg/mL; unlabeled peptide (e) 25 ng/mL.
The target in assay [29] is affinity-purified antibody (e). Kind of assay: competitive immunoassay, antibody (e)-immobilized plate; competitor POD-labeled partial peptide (e) 0.30 µg/mL; unlabeled peptide (e) 50 ng/mL.
Assay [30] concerns the target affinity-purified antibody (e). Nature of the assay: competitive immunoassay, antibody (e)-immobilized plate; competitor POD-labeled partial peptide (e) 0.30 µg/mL; unlabeled peptide (e) 100 ng/mL.
Assay [31] addresses affinity-purified antibody (c). Kind of assay: competitive immunoassay, antibody (c)-immobilized plate; competitor POD-labeled partial peptide (c) 0.35 µg/mL; unlabeled peptide (c) 0 ng/mL.
For assay [32], the target named is affinity-purified antibody (c). Nature of the assay: competitive immunoassay, antibody (c)-immobilized plate; competitor POD-labeled partial peptide (c) 0.35 µg/mL; unlabeled peptide (c) 5 ng/mL.
Assay [33] concerns the target affinity-purified antibody (c). Nature of the assay: competitive immunoassay, antibody (c)-immobilized plate; competitor POD-labeled partial peptide (c) 0.35 µg/mL; unlabeled peptide (c) 10 ng/mL.
Assay [34] has as its target affinity-purified antibody (c). Kind of assay: competitive immunoassay, antibody (c)-immobilized plate; competitor POD-labeled partial peptide (c) 0.35 µg/mL; unlabeled peptide (c) 25 ng/mL.
Assay [35] has as its target affinity-purified antibody (c). Kind of assay: competitive immunoassay, antibody (c)-immobilized plate; competitor POD-labeled partial peptide (c) 0.35 µg/mL; unlabeled peptide (c) 50 ng/mL.
The target in assay [36] is affinity-purified antibody (c). Nature of the assay: competitive immunoassay, antibody (c)-immobilized plate; competitor POD-labeled partial peptide (c) 0.35 µg/mL; unlabeled peptide (c) 100 ng/mL.

Data on four molecules can be found in patent publication US20090170126A1.

Ends that are not written are not given here.

Take “recombinant protein of full-length prostasin (prepared according to the method of Chen, L-M. et al., J. Biol. Chem., Vol. 276, pp. 21434-21442, 2001) (from UniProt Q16651 33-322) (enzyme)”: the absorbance (Abs) amounted to 1.18 Abs in assay [1]; 1.21 Abs in assay [2]; 1.19 Abs in assay [3]; 1.12 Abs in assay [4]; 1.09 Abs in assay [5]; 1.22 Abs in assay [6].
With AHQLDSYSEDAKVSTLKDI (also: peroxidase (POD) label, attachment site not given here) [POD-labeled partial peptide (a)], the absorbance (Abs) in assay [7] turned out to be 0.815 Abs; in assay [8] it was 1.41 Abs; in [9], 2.04 Abs; in assay [10], 2.4 Abs; in assay [11] it was 2.91 Abs; in [12], 0.418 Abs. Besides, the absorbance (Abs) was 0.477 Abs in [13]; 0.809 Abs in assay [14]; 1.25 Abs in assay [15]; 1.5 Abs in assay [16]; 1.99 Abs in assay [17]; 0.231 Abs in assay [18]. The ΔOD [absorbance (Abs)] was 0.338 Abs in assay [19]; 0.596 Abs in assay [20]; 0.79 Abs in assay [21]; 0.901 Abs in assay [22]; 0.925 Abs in assay [23]; 0.187 Abs in assay [24].
On to PQTQESQPDSN [partial peptide (e) of prostasin], for which the absorbance (Abs) in assay [25] was determined as 1.97 Abs; in [26], 1.96 Abs; in [27] it was 1.62 Abs; in assay [28], 1.55 Abs; in assay [29] it was 1.41 Abs; in assay [30], 1.49 Abs.
NCLYNIDAKPEEPHFVQED [partial peptide (c) of prostasin]: the absorbance (Abs) in assay [31] was 1.09 Abs; in assay [32] it was 1.08 Abs; in [33] it was 1.11 Abs; in [34] it was 1.12 Abs; in assay [35], 0.938 Abs; in assay [36], 0.943 Abs.
